Holding throughout (experiment): two-hybrid library CCNG1;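 also: natural log of median RNA to DNA barcode read ratio; higher means stronger binding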
Test [1] concerns the target T1, 4H3041-bA.
T1 chain: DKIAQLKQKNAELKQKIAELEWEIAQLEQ

Test [2] has as its target T2, 4H932-bA.
T2 chain: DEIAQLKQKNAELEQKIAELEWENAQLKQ

Test [3] has as its target T3, 4H2760-bA.
T3 chain: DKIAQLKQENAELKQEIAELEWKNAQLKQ

The target of test [4] is T4, 4H730-bA.
T4 chain: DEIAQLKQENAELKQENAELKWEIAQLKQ

In test [5] the target is T5, 4H349-bA.
T5 chain: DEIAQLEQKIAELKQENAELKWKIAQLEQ

Test [6] has as its target T6, 4H235-bA.
T6 chain: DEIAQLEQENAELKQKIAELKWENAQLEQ

Test [7] has as its target T7, 4H2253-bA.
T7 chain: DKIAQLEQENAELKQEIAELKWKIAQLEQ

For test [8], the target named is T8, 4H796-bA.
T8 chain: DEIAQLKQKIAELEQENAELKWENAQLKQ

The target in test [9] is T9, 4H2585-bA.
T9 chain: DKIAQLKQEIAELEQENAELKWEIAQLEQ

Test [10] deals with T10, 4H56-bA.
T10 chain: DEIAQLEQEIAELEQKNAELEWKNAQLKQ

Test [11] deals with T11, 4H2931-bA.
T11 chain: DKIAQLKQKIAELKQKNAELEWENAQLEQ

The target of test [12] is T12, 4H2444-bA.
T12 chain: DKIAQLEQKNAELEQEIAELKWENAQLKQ

The target in test [13] is T13, 4H3297-bA.
T13 chain: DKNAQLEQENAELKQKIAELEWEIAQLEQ

Test [14] addresses T14, 4H2518-bA.
T14 chain: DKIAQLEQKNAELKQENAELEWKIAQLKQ

For test [15], the target named is T15, 4H3381-bA.
T15 chain: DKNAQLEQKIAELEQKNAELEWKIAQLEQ

Test [16] has as its target T16, 4H2859-bA.
T16 chain: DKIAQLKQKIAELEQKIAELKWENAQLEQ

Test [17] concerns the target T17, 4H2233-bA.
T17 chain: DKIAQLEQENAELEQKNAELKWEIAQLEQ

Test [18] concerns the target T18, 4H264-bA.
T18 chain: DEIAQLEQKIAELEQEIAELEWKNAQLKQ

For test [19], the target named is T19, 4H3364-bA.
T19 chain: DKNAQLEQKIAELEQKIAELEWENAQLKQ

For test [20], the target named is T20, 4H949-bA.
T20 chain: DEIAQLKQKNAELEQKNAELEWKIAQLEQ

As to DKIAQLEQENAELEQKNAELKWEIAQLEQ [4H2233-bA], the interaction score in test [1] was 0.018; in test [2] it was -1.01; in test [3], -0.641; in test [4] it was -1.24; in test [5] it was -1.43; in test [6], -1.01. Besides, the interaction score in [7] is -1.28; in [8] it was -1.42; in test [9], -1.22; in [10], -1.39; in test [11] it was -1.08; in test [12], -1.1. For the same molecule, the interaction score in test [13] was -0.632; in test [14] it was 2.31; in [15], -0.976; in [16] it was -0.945; in [17], -0.789; in test [18], -1.45. The interaction score in test [19] is -0.979; in [20] it was -1.

The values are drawn from PMC10397247.
